From PMC7138851, “Quantitative assessment of the determinant structural differences between redox-active and inactive glutaredoxins” (Nature Communications, 2020) come the findings set out here.

Several values for one entry are separate records, joined by “and”; a condition that tells them apart may be missing. Identical values can stand only once.

The target in series [1] is T1, HsGrx5 (Homo sapiens, UniProt Q86SX6, C122S).
T1 construct: gene GLRX5; E. coli XL1-Blue, pQE30; N-terminal MRGS(H)6 tag; C122S in all constructs
T1 sequence (Q86SX6 32-157 C122S): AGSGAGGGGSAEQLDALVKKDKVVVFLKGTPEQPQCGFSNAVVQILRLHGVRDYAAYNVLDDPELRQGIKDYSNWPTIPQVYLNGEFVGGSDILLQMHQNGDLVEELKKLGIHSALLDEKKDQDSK
The series can be described thus: UV/vis absorbance of purified protein. In kind it is binding. Conditions: as purified from E. coli; cluster type not determined here.

Series [2] concerns the target Cys108 (UniProt position 108, FSATGCPYSKK). Description: chemical modification. Conditions: 23 °C (alkylation step), 25 °C (HEDS activity read-out), 100 mM KCl in a constant-ionic-strength three-buffer system, the ionic strength value is not stated, 50 mM potassium acetate, 50 mM MES, 100 mM Tris, Free enzyme, freshly reduced with a 20-fold molar excess of NaBH4, 6 µM protein.

The target in series [3] is Cys108 (UniProt position 108, FSETGCPYSKK). Description: chemical modification. As to conditions: 23 °C, 100 mM KCl in a constant-ionic-strength three-buffer system (value not stated), 50 mM potassium acetate, 50 mM MES, 100 mM Tris, Freshly reduced (NaBH4) free enzyme, no glutathione bound.
Series [4] deals with Cys108 (UniProt position 108, FSKTGCPYSKK). The series can be described thus: chemical modification. As to conditions: 23 °C, 100 mM KCl in a constant-ionic-strength three-buffer system (value not stated), 50 mM potassium acetate, 50 mM MES, 100 mM Tris, Freshly reduced (NaBH4) free enzyme, no glutathione bound.
Series [5] has as its target T2, ScGrx7 (Saccharomyces cerevisiae, UniProt P38068).
T2 construct: gene GRX7; E. coli XL1-Blue, pQE30; N-terminal MRGS(H)6 tag
T2 sequence (P38068 33-203): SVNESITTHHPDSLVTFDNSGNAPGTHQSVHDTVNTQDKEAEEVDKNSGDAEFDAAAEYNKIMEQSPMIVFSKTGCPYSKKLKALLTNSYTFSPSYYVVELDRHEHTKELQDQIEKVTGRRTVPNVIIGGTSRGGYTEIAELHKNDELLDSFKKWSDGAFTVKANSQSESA
Also noted: Disulfide oxidoreductase assay, steady-state kinetics, coupled NADPH consumption at 340 nm, pH 8.0, 25 °C. Conditions: apparent Km at highest fixed GSH concentration; substrate; read-out: Km app(HEDS). The protocol: Steady-state kinetics of wild-type and mutant ScGrx7 and HsGrx5^C122S in the GSSCys and [compound left out] assays were determined spectrophotometrically by monitoring the consumption of NADPH at 340 nm and 25 °C using a thermostated Jasco V-650 UV/vis spectrophotometer[11],[19],[25]. Fresh stock solutions of NADPH, GSH, GR, and GSSCys or [compound left out] were prepared in assay buffer containing 0.1 M Tris/HCl, 1 mM EDTA, pH 8.0 before each experiment. Both assays were performed with 0.1 mM NADPH and 1 U/ml ScGR. […] NADPH, GSH, and GR were mixed in assay buffer before Grx was added and a baseline was recorded for 30 s. […] The absorbance of a reference cuvette containing all components but no Grx was measured in parallel and subtracted from the obtained Grx activity. […] NADPH, GSH, and [compound left out] were preincubated in assay buffer for 2 min before GR was added and a baseline was recorded for 30 s. […] Kinetic data were analyzed in Excel and SigmaPlot 13 by nonlinear and linear regression according to Michaelis–Menten, Lineweaver–Burk, Eadie–Hofstee, and Hanes theory[11],[19],[25].

Substrate in series [6]: N[C@@H](CCC(=O)N[C@@H](CS)C(=O)NCC(=O)O)C(=O)O
Description: purified protein, by the assay type. As to conditions: pH 8.0; 25.0 °C. Also noted: GSSCys oxidoreductase assay, GR-coupled NADPH consumption at 340 nm, apparent Km from Hanes plots. Here is the method:
(§1) Steady-state kinetics of wild-type and mutant ScGrx7 and HsGrx5^C122S in the GSSCys and [compound left out] assays were determined spectrophotometrically by monitoring the consumption of NADPH at 340 nm and 25 °C using a thermostated Jasco V-650 UV/vis spectrophotometer[11],[19],[25]. Fresh stock solutions of NADPH, GSH, GR, and GSSCys or [compound left out] were prepared in assay buffer containing 0.1 M Tris/HCl, 1 mM EDTA, pH 8.0 before each experiment. Both assays were performed with 0.1 mM NADPH and 1 U/ml ScGR. The following final protein concentrations were used for Y110F/H/A (5–150 nM), D144A/K (10 nM), E147A/K (10 nM), R153A/E (25–50 nM), ScGrx7^WP (20 nM), ScGrx7^loop (up to 1.4 µM), ScGrx7^WP+loop (up 2.6 µM), HsGrx5^C122S (up to 15 µM), HsGrx5^RR (up to 12 µM), HsGrx5^loop (up to 1.6 µM), and HsGrx5^RR+loop (up to 4.0 µM). For the GSSCys assays, GSH was varied between 50 µM and 1.5 mM at fixed GSSCys concentrations (25, 50, 100, and 150 µM). NADPH, GSH, and GR were mixed in assay buffer before Grx was added and a baseline was recorded for 30 s. All GSSCys assays were started by the addition of GSSCys. The absorbance of a reference cuvette containing all components but no Grx was measured in parallel and subtracted from the obtained Grx activity. For the [compound left out] assays, GSH was varied between 100 µM and 2.0 mM at fixed concentrations of [compound left out] (0.18, 0.37, 0.55, and 0.74 mM). NADPH, GSH, and [compound left out] were preincubated in assay buffer for 2 min before GR was added and a baseline was recorded for 30 s. All [compound left out] assays were started by the addition of enzyme. Kinetic data were analyzed in Excel and SigmaPlot 13 by nonlinear and linear regression according to Michaelis–Menten, Lineweaver–Burk, Eadie–Hofstee, and Hanes theory[11],[19],[25]. 29 Supplementary Figure 15 Supplementary Figure 15 | GSSCys assay steady-state kinetics of HsGrx5loop and HsGrx5RR+loop . […] The activities of HsGrx5 and HsGrx5RR were similar to the NADPH consumption of negative controls without enzyme and could not be analyzed.

Substrate in series [7]: N[C@@H](CCC(=O)N[C@@H](CSSC[C@H](N)C(=O)O)C(=O)NCC(=O)O)C(=O)O
Description: purified protein, by the assay type. On the set-up: GSSCys oxidoreductase assay, GR-coupled NADPH consumption at 340 nm, apparent Km from Hanes plots. As to conditions: pH 8.0; 25.0 °C. Here is the method:
as §1

The term pKa denotes the pH at which an ionisable group is half protonated. In general, Km refers to the substrate concentration at which the rate is half of its maximum. Usually kcat stands for the number of substrate molecules converted per active site and unit of time at saturation. By kcat/Km is commonly meant the turnover number divided by the Michaelis constant.

As for `[S]1[Fe][S][Fe]1` [iron–sulfur cluster], the “UV/vis absorbance of purified protein” value in series [1] was “Freshly purified recombinant wild-type HsGrx5 contained an iron–sulfur cluster”.
With “Glutaredoxin 7 (ScGrx7) K105A (Saccharomyces cerevisiae; K105A)”, in series [2], the pKa was 4.4 ± 0.1.
In turn, “Glutaredoxin 7 (ScGrx7) K105E (Saccharomyces cerevisiae; K105E)” yielded a pKa in series [3] of 5.0 ± 0.1.
With “Glutaredoxin 7 (ScGrx7), wild type (Saccharomyces cerevisiae)”, in series [4], the pKa was 4.3 ± 0.1 and 4.48.
In the case of `OCCSSCCO` [HEDS], the Km in series [5] worked out at 820 ± 190 µM.

B1: HsGrx5 (Homo sapiens; C122S/DEL60-64/P65T/Q66G) (protein)
chain: AGSGAGGGGSAEQLDALVKKDKVVVFLKTGCGFSNAVVQILRLHGVRDYAAYNVLDDPELRQGIKDYSNWPTIPQVYLNGEFVGGSDILLQMHQNGDLVEELKKLGIHSALLDEKKDQDSK
notes: E. coli XL1-Blue, pQE30; N-terminal MRGS(H)6 tag; C122S in all constructs
As for B1, in series [6], the kcat is 0.18 s⁻¹ and 0.27 s⁻¹; the kcat/Km is 3900 M⁻¹ s⁻¹ and 4800 M⁻¹ s⁻¹. In addition, the specificity constant (kcat/Km) in series [7] was 1500 M⁻¹ s⁻¹ and 1600 M⁻¹ s⁻¹.
